Each block holds one binder with its values, some of them ahead of it.
B2: Methanocaldococcus jannaschii fumarate hydratase α-subunit (enzyme)
chain: KISDVVVELFREAAIYLPEDVKNALEEAYKKESSEISKNTLKAIIENNKIAEETQVPLCQDTGVPIVFLKIGKNINSSEIMKIIEEIKEGVKKATEEVPLRPNVVHPLTRENFKTNVGLNSPFINIEFDESLDREIEIIAFPKGAGSENMSALKMLKPSDGIEGIKNFVLETIANAGGKPCPPIVVGIGIGGTADVALKLAKKALLRKIGERHRDKEIANLEKELLEKINSLGIGAMGLGGDITALDVFIEIAGCHTASLPVGICIQCWADRRAIKRIKLDAKL

Experiments:
[1] = target: B2; assay: ITC
[2] = target: the molecule itself; assay: SEC
[3] = target: the molecule itself; assay: crystal structure

Kd [1]: 595 ± 19 nM
B1: Methanocaldococcus jannaschii fumarate hydratase β-subunit (enzyme)
chain: MEYTFNKLTKKDVKKLKVGDIVYLNGKIYTARDEAHLKIIEMLKSNEKLPFDLNESIIYHAGPIMKKVNDSWVCVSIGPTTSARMNDVEEEFIKLTNISAIVGKGGMKKELLKTFEDYGVVYLAAPGGCAALLANSVKRVDNVYFLDELGMPEAVWELEVNNFGPLIVAMDSHGNSIYEEVNKKVYEKLNELIGL

Binder: B2
stoichiometry N [2]: 2

B3: Selenomethionine incorporated Methanocaldococcus jannaschii fumarate hydratase α-subunit (of Se-MjFHαβ) (enzyme)
chain: KISDVVVELFREAAIYLPEDVKNALEEAYKKESSEISKNTLKAIIENNKIAEETQVPLCQDTGVPIVFLKIGKNINSSEIMKIIEEIKEGVKKATEEVPLRPNVVHPLTRENFKTNVGLNSPFINIEFDESLDREIEIIAFPKGAGSENMSALKMLKPSDGIEGIKNFVLETIANAGGKPCPPIVVGIGIGGTADVALKLAKKALLRKIGERHRDKEIANLEKELLEKINSLGIGAMGLGGDITALDVFIEIAGCHTASLPVGICIQCWADRRAIKRIKLDAKL
modifications: selenomethionine incorporated (eleven selenium atoms per functional dimer)
binding result [3]: binds
